The assay has as its target Recombinant NPTN polypeptide (UniProt Q9Y639 29-398). Nature of the assay: MST.

Recombinant NPTN polypeptide, sequence (Q9Y639 29-339): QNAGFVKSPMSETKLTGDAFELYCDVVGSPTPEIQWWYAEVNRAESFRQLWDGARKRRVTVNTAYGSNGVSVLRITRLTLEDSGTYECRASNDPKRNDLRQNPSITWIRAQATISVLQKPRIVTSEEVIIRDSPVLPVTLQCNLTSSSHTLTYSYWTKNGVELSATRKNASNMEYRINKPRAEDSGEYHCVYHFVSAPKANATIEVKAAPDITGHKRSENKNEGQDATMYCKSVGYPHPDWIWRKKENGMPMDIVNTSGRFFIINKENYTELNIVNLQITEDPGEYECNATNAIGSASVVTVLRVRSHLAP

B1: Recombinant MANF polypeptide, labeled with Alexa 647 (ligand)
chain: LRPGDCEVCISYLGRFYQDLKDRDVTFSPATIENELIKFCREARGKENRLCYYIGATDDAATKIINEVSKPLAHHIPVEKICEKLKKKDSQICELKYDKQIDLSTVDLKKLRVKELKKILDDWGETCKGCAEKSDYIRKINELMPKYAPKAASARTDL
modifications: fluorescently labeled with Alexa 647
As to B1, the dissociation constant Kd – broadly, a measure of binding affinity in units of concentration – came out at 104 nM.
